Test results published in patent US20110082421A1.

Assays:
[1] = target: AGE-modified bovine serum albumin (AGE-BSA), prepared by incubating BSA in 1.67 M glucose for two months (bovine) (UniProt P02769); experiment: FIG. 1D initial capacity of the RE series; batch adsorption, competitive ELISA
[2] = target: AGE-modified bovine serum albumin (AGE-BSA), prepared by incubating BSA in 1.67 M glucose for two months (bovine) (UniProt P02769); experiment: FIG. 1D initial capacity of the RET series; batch adsorption, competitive ELISA
[3] = target: AGE-modified bovine serum albumin (AGE-BSA), prepared by incubating BSA in 1.67 M glucose for two months (bovine) (UniProt P02769); experiment: FIG. 1A thermal stability, initial capacity (1 h at 37 C); batch adsorption, competitive ELISA
[4] = target: AGE-modified bovine serum albumin (AGE-BSA), prepared by incubating BSA in 1.67 M glucose for two months (bovine) (UniProt P02769); experiment: FIG. 1D final capacity after 6 cycles of regeneration, ethanol storage and 4 h at 37 C (RET); batch adsorption, competitive ELISA
[5] = target: AGE-modified bovine serum albumin (AGE-BSA), prepared by incubating BSA in 1.67 M glucose for two months (bovine) (UniProt P02769); experiment: FIG. 1D RET series, after 6 processing cycles
[6] = target: AGE-modified bovine serum albumin (AGE-BSA), prepared by incubating BSA in 1.67 M glucose for two months (bovine) (UniProt P02769); experiment: FIG. 1C initial capacity before storage in 20% ethanol; batch adsorption, competitive ELISA
[7] = target: AGE-modified bovine serum albumin (AGE-BSA), prepared by incubating BSA in 1.67 M glucose for two months (bovine) (UniProt P02769); experiment: FIG. 1D final capacity after cycles of regeneration and ethanol storage (RE), 1 h at 37 C; batch adsorption, competitive ELISA
[8] = target: AGE-modified bovine serum albumin (AGE-BSA), prepared by incubating BSA in 1.67 M glucose for two months (bovine) (UniProt P02769); experiment: FIG. 1A thermal stability, final capacity (4 h at 37 C); batch adsorption, competitive ELISA
[9] = target: AGE-modified bovine serum albumin (AGE-BSA), prepared by incubating BSA in 1.67 M glucose for two months (bovine) (UniProt P02769); experiment: FIG. 1C final capacity after 34 days in 20% ethanol at 4 C; batch adsorption, competitive ELISA
[10] = target: AGE-modified bovine serum albumin (AGE-BSA), prepared by incubating BSA in 1.67 M glucose for two months (bovine) (UniProt P02769); experiment: FIG. 1D RE series, after processing cycles

AGE-modified bovine serum albumin (AGE-BSA), prepared by incubating BSA in 1.67 M glucose for two months (bovine), sequence (P02769 25-607 limits assumed): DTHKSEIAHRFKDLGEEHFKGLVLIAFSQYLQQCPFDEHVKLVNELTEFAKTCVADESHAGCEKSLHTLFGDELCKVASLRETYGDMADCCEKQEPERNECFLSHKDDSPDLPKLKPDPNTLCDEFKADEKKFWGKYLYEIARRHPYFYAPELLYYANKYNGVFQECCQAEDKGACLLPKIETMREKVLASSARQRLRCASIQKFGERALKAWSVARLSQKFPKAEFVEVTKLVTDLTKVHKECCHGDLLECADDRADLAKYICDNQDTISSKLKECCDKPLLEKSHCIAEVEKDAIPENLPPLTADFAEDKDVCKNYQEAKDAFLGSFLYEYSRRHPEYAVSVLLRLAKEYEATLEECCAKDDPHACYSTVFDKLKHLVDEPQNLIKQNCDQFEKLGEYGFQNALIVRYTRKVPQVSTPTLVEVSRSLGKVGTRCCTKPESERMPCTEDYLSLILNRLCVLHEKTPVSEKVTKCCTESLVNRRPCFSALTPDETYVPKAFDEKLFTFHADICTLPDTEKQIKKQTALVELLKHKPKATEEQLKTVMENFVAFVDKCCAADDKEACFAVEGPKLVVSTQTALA

- binding capacity (mg AGE-BSA/ml RAGE gel) [1]: 0.92
- binding capacity (mg AGE-BSA/ml RAGE gel) [2]: 0.94
- binding capacity (mg AGE-BSA/ml RAGE gel) [3]: 0.92
- binding capacity (mg AGE-BSA/ml RAGE gel) [4]: 0.79
- decrease of binding capacity against the initial binding capacity [5]: 16%
- binding capacity (mg AGE-BSA/ml RAGE gel) [6]: 0.6
- binding capacity (mg AGE-BSA/ml RAGE gel) [7]: 0.82
- binding capacity (mg AGE-BSA/ml RAGE gel) [8]: 0.94
- binding capacity (mg AGE-BSA/ml RAGE gel) [9]: 0.57
- decrease of binding capacity against the initial value [10]: 10%
Substance: RAGE-His construct (extracellular region of human RAGE, amino acid residues 23 through 340, with C-terminal six-histidine tag), immobilized on agarose (from UniProt Q15109 23-340) (receptor)
